Test results: patent US20260265800A1, “NEW FUCOSYLTRANSFERASES FOR IN VIVO SYNTHESIS OF LNFP-III” (DSM IP Assets B.V., priority 2022, published 2026)

System: LNnT
Assay: Deep well assay: HMO profile of LNnT-producing strains expressing α-1,3-fucosyltransferases (HPLC)
Format: cell-based, Escherichia coli
Experimental: Deep Well Assays in the current examples were performed as originally described to Lv et al (Bioprocess Biosyst Eng 20 (2016) 39:1737-1747) and optimized for the purposes of the current invention. More specifically, the strains disclosed in the present example were screened in 96 deep well plates using a 4-day protocol. During the first 24 hours, precultures were grown to high densities (OD600 up to 5) and subsequently transferred to a medium that allowed induction of gene expression and product formation.
More specifically, during day 1, fresh precultures were prepared using a basal minimal medium (BMM) (pH 7.0) supplemented with magnesium sulphate (0.12 g/L), thiamine (0.004 g/L) and glucose (5.5 g/L). Basal Minimal medium had the following composition: NaOH (1 g/L), KOH (2.5 g/L), KHzPO4 (7 g/L), NH&HzPO4 (7 g/L), Citric acid (0.5 g/l), trace mineral solution (5 mL/L). The trace mineral stock solution contained; ZnSO~*7H~O 0.82 g/L, Citric acid 20 g/L, Mn$04*H&O 0.98 g/L, FeSO4*7H&O 3.925 g/L, CuSO4*5H~O 0.2 g/L. The pH of the Basal Minimal Medium was adjusted to 7.0 with 5 N NaOH and autoclaved. The precultures were incubated for 24 hours at 34° C. and 1000 rpm shaking and then further transferred to 0.75 ml of a new BMM (pH 7,5) to start the main culture. The new BMM was supplemented with magnesium sulphate (0.12 g/L), thiamine (0.02 g/L), a bolus of glucose solution (0.1-0.15 g/L) and a bolus of lactose solution (5-20 g/L) Moreover, a 20% stock solution of sucrose (40-45 g/L) or maltodextrin (19-20 g/L) was provided as carbon source, accompanied by the addition of a specific hydrolytic enzyme, sucrose hydrolase or glycoamylase, respectively, so that glucose was released at a rate suitable for carbon-limited growth and similar to that of a typical fed-batch fermentation process. The main cultures were incubated for 72 hours at 28° C. and 1000 rpm shaking. For the analysis of total broth, the 96 well plates were boiled at 100° C., subsequently centrifuged, and finally the supernatants were analysed by HPLC.
Genetically modified cells expressing individual α-1,3-fucosyltransferase enzymes were screened for their ability to produce the fucosylated HMO LNFP-III.
Genetically modified strains expressing the six individual α-1,3-fucosyltransferases (table 5) were generated as described in the “Method” section. The cells were screened in the deep well assay setup as described in the “Method” section.
The molar content of individual HMOs produced by the strains was measured by HPLC.
The results of the LNFP-III producing cells are shown in table 7 as the fraction of the total molar HMO content (in percentage, %) produced by each strain.

[1] = two genomic copies and high copy plasmid (pUC57-Parm1-PglpF)

B1: Parm1: α-1,3-fucosyltransferase from Parabacteroides merdae, GenBank WP_129943149.1, SEQ ID NO: 2 (protein, listed as Parabacteroides merdae)
chain: MKHETPVLSFIIPIYNVELYLPACLESVLHLPLTNFEIILIDDGSTDNSGRIADKYAENYSHIHVIHQTNAGLSATRNRGVELAEGNYIAFLDSDDWLIGDQIVDIYLQTSQANADMGMGNSLFCYPDGSNGNPFAPIPQNLIGQTIDGKYCFTELMKQNVYPPMVYNYIYRREWLLSHQLRFESVLHEDELWTPIALCYARRIVVTNIDFYGYRQREGSIMTSLRREKRIHDLFFIADRLIRLAENYRFDSDDKNLKSQLYVRSYLLYKIAFSSLAHIHDTRFILPTHHLYQLFAIKNKLTADARNTCINQYKTAKQGLKSYLKWRNSYWIRKLTYEISPETKLILIFNTMWNKPLDIPIQKIPANCIITTDRRFLSTADFVVFHLPDLSNELEEDLDKPEGQKWVAWSLECEENYHFLKDPEFMEVFDYKMSYHQDADIVYPYYRYEYRKELILMPEFSFHEKKDICMMISSPFNQSGRQEYLQELMQYISIDSYGKLFNNCKLEKDSGQDSKMELYRQYKFVIAFENSRANDYVTEKFYDPLLAGAVPIYLGAPNIETFAPGENCSVDIRNFSSPKELAAFLIEACKNEKIYNKFLQWKKEPLKPEFMKKIEAQRVHPFIRLCHLLHLPPPTSRYDGARKKNAHRS
FT copy nr as in table 7
  LNnT, % of total HMO molar (mM) content produced by each strain: 21%
Two genomic copies
  amount of LNnT produced, % of the total HMO content: 14%
  relative amount of LNFP-III produced, % of the total HMO content: 81%
[1]
  amount of LNnT produced, % of the total HMO content: 5%
  relative amount of LNFP-III produced, % of the total HMO content: 86%

B2: Hacin2: α-1,3-fucosyltransferase from Helicobacter acinonychis, GenBank WP_104687422.1, SEQ ID NO: 5 (protein, listed as Helicobacter acinonychis)
chain: MFQPLLDAYTDSAYSDASDHKPPLNIAIANGWGGTKGFEASVLYFILSWRYKIALHENPNKPADLVFSNPLGQARKILSYQNTKRVFYTGENEVPNFNLFDYAIGFDGLDFKERYLRMPLYYASLHDKAQSVNDTTAPYTLKSDSLYALKKPAHCFKEDHPKLCSVVKGESDPFKRGFASFVAGNANAPMRNAFCEALNSVEPVTGGGAVKNTLGYNVTNKSEFLSQYKFNLCFENAQGYGYVTEKIIDAYFSHTIPIYWGSPSVAQDFNPKSFVNVHDFKDFDGAIDYIRYLHTHENAYLDMLYENPLNVIDGKACFYQDLSFKKILDFFKTILENDTIYHNNPFVFDRDLHEPLVSIDNLRADLLLLKDNYDGLKTDYDGLKTDYDGLKTDYDGLKTDYDGLKTDYDGLKTDYDGLKTDYDHLFKSALPLLELSQTTSFKIYHKIYQKTLPLLRMARKLVKK
FT copy nr as in table 7
  LNDFH-III, % of total HMO molar (mM) content produced by each strain: do not produce any

B3: Med1: α-1,3-fucosyltransferase from Mediterranea sp. An20, GenBank WP_087337236.1, SEQ ID NO: 4 (protein, listed as Mediterranea sp.)
chain: MRKILILFYNKLWGVSWENEACASIPDGFELTDDRSRMAEADAVVFHLPDLARCMDGEEIEKRDGQLWVTWNLECDDNYPWVEAPEIRDLFDLRIGYRQQDDVWYPYFSFIRAEAFTRLPPRRPPLDKACLFVSSPFNRSHRFEFLRELMRHTEVDSFGRMLHNKDLPADEGRKTLMEKIADYKFVIGVENALARDYVTEKFFQPLLAGTVPVYRGAPNVEEFAPGRHCFVDARAFRSPADLAGFMNRCYEHPALYDELTAWRTQPLQPGFVQKLEQVKEHPFVRLCRVVEEKIRRIEYKIT
FT copy nr as in table 7
  LNDFH-III, % of total HMO molar (mM) content produced by each strain: do not produce any

B4: Hpull1: α-1,3-fucosyltransferase from Helicobacter pullorum, GenBank WP_065831246.1, SEQ ID NO: 3 (protein, listed as Helicobacter pullorum)
chain: MRKDLVIIRVDGGIASQISFVALGLEFESRGYKVKYDLSWFDEFGNGICNEQNGYDRSYNIVFDIPKAFPDIKCEIASRDEIEIYRKKYFVDNEEVIELKPPLYVGGYLGRHFNFKYRDFFAKHFNPKEIQESDSECKILLDNILSNHSCGVHIRRGDLSKEHVVYGKPLSVEYFLKNIQLVLQIEPKSKFYFFGDDLEWVKKKVIPSLNSIEYEICNVNSVEKGYLDLYLLSRCKIIIASQGSMGKFAKMLASDTETLLIAPNKNAPMENMIMVNWVDSYESSGEKQIQKPLSWRNKIRLKIYKKFRNKLLQKGIL
FT copy nr as in table 7
  LNDFH-III, % of total HMO molar (mM) content produced by each strain: do not produce any
